# Assay results from patent publication US7329737 (DYAX, dated 2008).
# Target: T1, hK1 (human tissue kallikrein 1), recombinant (human, UniProt P06870 25-262)
# T1 construct: Expressed in P. pastoris from KLK1 cDNA and purified; enzymatically active; also called KLK1; Recombinant (Pichia) Kallikrein
# Assay: SPR
Binder,Kd,koff,kon
"M0105-F02 (Fab, V domains shown) VH: EVQLLESGGGLVQPGGSLRLSCAASGFTFSRYWMAWVRQAPGKGLEWVSSIGPSGGSTKYADSVKGRFTISRDNSKNTLYLQMNSLRAEDTAVYYCARTARWLSFDYWGQGTLVTVSS VL: DIQMTQSPSTLSASVGDRVTITCRASQSISSWLAWYQQKPGEAPKLLIYAASSLRNGVPSRFIGSGSGTDFTLTISSLQPEDFATYYCQQSYSTPPTFGGGTKVEIKR",10.9 nM,0.0103 s⁻¹,947000 M⁻¹ s⁻¹
"M0096-E11 (Fab, V domains shown) VH: EVQLLESGGGLVQPGGSLRLSCAASGFTFSHYLMYWVRQAPGKGLEWVSSIYPSGGFTAYADSVKGRFTISRDNSKNTLYLQMNSLRAEDTAVYYCARRGVYGTFDIWGQGTMVTVSS VL: DIQMTQSPLSLSASVGDRVTMTCRASQTISSYLNWYQQKPGKAPKLLIYTTSSLQSGVPSRFSGSGSGTEFTLTISSLQPEDFATYYCQQSHSSPTFGGGTKVEIKR",10.1 nM,0.00836 s⁻¹,827000 M⁻¹ s⁻¹
"M0103-A03 (Fab, V domains shown) VH: EVQLLESGGGLVQPGGSLRLSCAASGFTFSHYPMSWVRQAPGKGLEWVSYIRSGGYTTYADSVKGRFTISRDNSKNTLYLQMNSLRAEDTAVYYCARERVFCSGGRCGSYFDYWGQGTLVTVSS VL: DIQMTQSPSSVSASVGDRVTITCRASQDVRRFLAWYQQKPGKAPKLLIYAASSLQSGVPSRFSGSGSGTDFTLTISSLQPEDFATYYCQQANSFPITFGQGTRLEIKR",10.6 nM,0.00988 s⁻¹,931000 M⁻¹ s⁻¹
"M0099-A09 (Fab, V domains shown) VH: EVQLLESGGGLVQPGGSLRLSCAASGFTFSRYAMFWVRQAPGKGLEWVSSISPSGGKTRYADSVKGRFTISRDNSKNTLYLQMNSLRAEDTAVYYCARGGGTALDYWGQGTLVTVSS VL: DIQMTQSPGTLSLSPGERATLSCRASQSVYSSYLAWYQQKPGQAPRLLIYAASNRAIGIPDRFSGSGSGTDFTLTISSMQPEDFATYYCQQSYSTPRFGQGTKLEIKR",10.7 nM,0.00285 s⁻¹,267000 M⁻¹ s⁻¹
"M0112-C02 (Fab, V domains shown) VH: EVQLLESGGGLVQPGGSLRLSCAASGFTFSNYYMLWVRQAPGKGLEWVSYIRSSGGSTRYADSVKGRFTISRDNSKNTLYLQMNSLRAEDTAVYYCAKPTVDGAFDYWGQGTLVTVSS VL: DIQMTQSPGTLSLSPGDRATLSCRASQSVSSNYLAWYQQKPGQAPRLLIYGASSRATGIPDRFSGSGSGTDFTLTISRLEPEDFGVYYCQQFGSSLFTFGPGTKVNIKR",10.9 nM,0.00523 s⁻¹,481000 M⁻¹ s⁻¹
"M0104-B03 (Fab, V domains shown) VH: EVQLLESGGGLVQPGGSLRLSCAASGFTFSNYTMFWVRQAPGKGLEWVSSIYPSGGITRYADSVKGRFTISRDNSKNTLYLQMNSLRAEDTAVYYCARVSFWNAFDIWGQGTMVTVSS VL: not shown",10.1 nM,0.00711 s⁻¹,707000 M⁻¹ s⁻¹
"M0125-C04 (Fab, V domains shown) VH: EVQLLESGGGLVQPGGSLRLSCAASGFTFSHYVMDWVRQAPGKGLEWVSSIYPSGGWTRYADSVKGRFTISRDNSRNTLYLQMNSLRAEDTAVYYCARRGQWLVLDYWGQGTLVTVSS VL: AQSELTQPASVSGSPGQSITISCAGTSSDLGGYDYVSWYQQYPGKAPKLIIYQVGRRPSGVSNRFSGSKSGNTASLTISGLQTEDEADYYCSSYTSSRTRVFGGGTRVTVLG",11.2 nM,0.00536 s⁻¹,478000 M⁻¹ s⁻¹
"M0109-E08 (Fab, V domains shown) VH: EVQLLESGGGLVQPGGSLRLSCAASGFTFSHYTMLWVRQAPGKGLEWVSSIYSSGGSTYYADSVKGRFTISRDNSKNTLYLQMNSLRAEDTAVYYCARVGVWYGMDVWGQGTTVTVSS VL: not shown",10.1 nM,0.00889 s⁻¹,880000 M⁻¹ s⁻¹
"M0122-H04 (Fab, V domains shown) VH: EVQLLESGGGLVQPGGSLRLSCAASGFTFSRYAMAWVRQAPGKGLEWVSSIGSSGGVTKYADSVKGRFTISRDNSKNTLYLQMNSLRAEDTAVYYCAAPRGRYYYDSSGYYYGGVFDYWGQGTLVTVSS VL: AQYELTQPRSVSGSPGQSVTISCTGTSSDVGGFNYVSWYQQHPGKAPKLMIYDVSKRPSGVPDRFSGSKSGTTASLTISGLQADDEADYYCCSYTGNYTYVFGTGTKVTVLG",11.8 nM,0.000802 s⁻¹,68200 M⁻¹ s⁻¹
"M0092-B12 (Fab, V domains shown) VH: EVQLLESGGGLVQPGGSLRLSCAASGFTFSQYLMAWVRQAPGKGLEWVSSIYPSGGNTNYADSVKGRFTISRDNSKNTLYLQMNSLRAEDTAVYYCARDRSIVPYSSSWYMPRDYYYGMDVWGQGTTVTVSS VL: DIQMTQSPSSLSASVGDRVTITCRASQGISNYLAWYQQKPGKVPKLLIYAASTLQSGVPSRFSGSGSGTDFTLTISSLQPEDFATYYCQQSYSTPYTFGQGTKLEVRR",12.1 nM,0.00171 s⁻¹,141000 M⁻¹ s⁻¹
"M0138-E12 (Fab, V domains shown) VH: EVQLLESGGGLVQPGGSLRLSCAASGFTFSWYVMRWVRQAPGKGLEWVSSIYPSGGQTRYADSVKGRFTISRDNSKNTLYLQMNSLRAEDTAMYYCATGYSSTWGAFDIWGQGTMVTVSS VL: AQSALTQPASVSGSPGQSITISCSGTSSDVGAYYHVSWYQQHPGKAPKLMIYEVTNRPSGISNRFSGSKSGNTASLTISGLQADDEADYFCSSYTTSNTLVFGGGTKVTVLG",10 nM,0.00149 s⁻¹,148000 M⁻¹ s⁻¹

# Continued, values first:
Kd,koff,kon,Binder
9.74 nM,0.000941 s⁻¹,96600 M⁻¹ s⁻¹,"M0101-E01 (Fab, V domains shown) VH: EVQLLESGGGLVQPGGSLRLSCAASGFTFSPYIMSWVRQAPGKGLEWVSSIVSSGGVTLYADSVKGRFTISRDNSKNTLYLQMNSLRAEDTAVYYCTKNINLRYDILTGYFDIWGQGTTVTVSS VL: DIQMTQSPSSVSASVGDRVTITCRAGQNIYYWLAWYQQKPGKAPQLLIYAASSLQSGVPSRFSGSGSGTDFTLTISSLQPEDFATYYCQQAKSFPVTFGGGTKVEIKR"
8.4 nM,0.00313 s⁻¹,372000 M⁻¹ s⁻¹,"M0093-G06 (Fab, V domains shown) VH: EVQLLESGGGLVQPGGSLRLSCAASGFTFSNYHMDWVRQAPGKGLEWVSVIGPSGGFTRYADSVKGRFTISRDNSKNTLYLQMNSLRAEDTAVYYCARALGGSLDYWGQGTLVTVSS VL: AQSALTQPRSVSGSLGQSVTISCTGSTSDVGGYTYVSWYQQEPGKAPKLMIHDVSKRPSGVPDRFSGSKSGNTASLIISGLQAEDEADYYCCSYAGSYSYVFGTGTKVTVLG"
8.69 nM,0.00575 s⁻¹,662000 M⁻¹ s⁻¹,"M0127-C06 (Fab, V domains shown) VH: EVQLLESGGGLVQPGGSLRLSCAASGFTFSNYPMHWVRQAPGKGLEWVSYIGPSGGWTRYADSVKGRFTISRDNSKNTLYLQMNSLRAEDTAVYYCARAPSGYWGQGTLVTVSS VL: not shown"
7.57 nM,0.00206 s⁻¹,272000 M⁻¹ s⁻¹,"M0135-E10 (Fab, V domains shown) VH: EVQLLESGGGLVQPGGSLRLSCAASGFTFSWYRMSWVRQAPGKGLEWVSSISPSGGPTKYADSVKGRFTISRDNSKNTLYLQMNSLRAEDTAVYYCARPSGDSSVYRPFASWGQGTLVTVSS VL: not shown"
7.8 nM,0.00307 s⁻¹,394000 M⁻¹ s⁻¹,"M0130-B02 (Fab, V domains shown) VH: EVQLLESGGGLVQPGGSLRLSCAASGFTFSNYSMVWVRQAPGKGLEWVSRIYSSGGSTHYADSVKGRFTISRDNSKNTLYLQMNSLRAEDTAVYYCARVGVWYGMDVWGQGTTVTVSS VL: AQSALTQPASVSGSPGQSITISCTDTSGNVGSYNLVSWYQQHPDKAPKLMIFEVSRRPSGVSDRFSGSKSGNTASLTISGLQAEDEADYYCCSYAGSNTYVFGTGTKVTVLG"
8.5 nM,0.00355 s⁻¹,418000 M⁻¹ s⁻¹,"M0108-E11 (Fab, V domains shown) VH: EVQLLESGGGLVQPGGSLRLSCAASGFTFSNYSMMWVRQAPGKGLEWVSSIYPSGGFTKYADSVKGRFTISRDNSKNTLYLQMNSLRAEDTAVYYCARVGFYGGFVWGQGTTVTVSS VL: AQYELTQPASVSGSPGQSITISCTATSSDLGSYNFVSWYQQHPDKAPKLMIFEVSRRPSGVSNRFSGSKSGNTASLTISGLQAEDEADYYCCSYAGSNTYVFGTGTKVTVLG"
9.71 nM,0.0066 s⁻¹,680000 M⁻¹ s⁻¹,"M0107-F11 (Fab, V domains shown) VH: EVQLLESGGGLVQPGGSLRLSCAASGFTFSHYQMHWVRQAPGKGLEWVSSIRPSGGRTAYADSVKGRFTISRDNSKNTLYLQMNSLRAEDTAVYYCARVGVWYGMDVWGQGTTVTVSS VL: DIQMTQSPGTLSLSPGERATLSCRASQSVSGSYLAWYQQKPGQAPSLLIYGAYSRATGIPDRFSGSGSGTDFTLTISRLEPEDFAVYYCQHYGSSPRTFGGGTKVEIKR"
8.28 nM,0.00168 s⁻¹,203000 M⁻¹ s⁻¹,"M0097-D04 (Fab, V domains shown) VH: EVQLLESGGGLVQPGGSLRLSCAASGFTFSHYFMHWVRQAPGKGLEWVSYISSSGGLTGYADSVKGRFTISRDNSKNTLYLQMNSLRAEDTAVYYCARRGPVYYYDSSGSHSAFDIWGQGTMVTVS VL: AQSELTQPPSASGTPGQRVTISCSGSSSNIGSNYVYWYQQLPGMAPKLLIYRNNQRPSGVPDRFSGSKSGTSASLAISGLRSEDEADYYCAAWDDSMSGVVFGGGTKLTVLS"
9.06 nM,0.00812 s⁻¹,896000 M⁻¹ s⁻¹,"M0107-D01 (Fab, V domains shown) VH: EVQLLESGGGLVQPGGSLRLSCAASGFTFSWYGMGWVRQAPGKGLEWVSVIRPSGGTTRYADSVKGRFTISRDNSKNTLYLQMNSLRAEDTAVYYCARGGRYYSLDYWGQGTLVTVSS VL: AQSELTQPASVSGPPGQSITISCTGTSSDVGGYNYVSWYQQHPGKAPKLIIYEVSNRPSGVSYRFSASKSDNTASLTISGVQAEDEADYYCSSYKRGGTYVFGTGTTVIVL"
8.81 nM,0.0036 s⁻¹,409000 M⁻¹ s⁻¹,"M0105-B06 (Fab, V domains shown) VH: EVQLLESGGGLVQPGGSLRLSCAASGFTFSHYAMGWVRQAPGKGLEWVSRIWPSGGHTQYADSVKGRFTISRDNSKNTLYLQMNSLRAEDTAMYYCATGYSSTWGAFDIWGQGTMVTVSS VL: DIQMTQSPSSLSASVGDRVTLTCRASQSIANYLNWYQQKPGKAPKLLVYAASRLHSGVPSRFSGRGSGTDFTLTITSLEPDDLATYYCQQSHASPLTFGGGTKVEIKR"
